Legend:
[1] = target: MCP-1, P13500
[2] = target: monocyte chemotactic protein-3 (MCP-3), P80098
[3] = target: T1, RANTES(1-68)
T1 chain: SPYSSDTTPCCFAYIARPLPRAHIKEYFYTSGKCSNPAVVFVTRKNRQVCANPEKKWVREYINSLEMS

[4] = target: T2, MCP-2, P80075
T2 chain: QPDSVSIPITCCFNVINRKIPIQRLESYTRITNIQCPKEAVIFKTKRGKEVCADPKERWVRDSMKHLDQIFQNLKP

Sequence of MCP-1, P13500 (P13500 whole entry, looked up): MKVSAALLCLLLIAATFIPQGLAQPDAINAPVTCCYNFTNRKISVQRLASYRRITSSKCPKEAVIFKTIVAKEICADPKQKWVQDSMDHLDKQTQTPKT
Sequence of monocyte chemotactic protein-3 (MCP-3), P80098 (P80098 24-99): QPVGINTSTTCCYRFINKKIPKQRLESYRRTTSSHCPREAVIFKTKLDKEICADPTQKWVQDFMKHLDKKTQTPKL

B1: Human CD26/DPP IV (protein)
chain: MKTPWKVLLGLLGAAALVTIITVPVVLLNKGTDDATADSRKTYTLTDYLKNTYRLKLYSLRWISDHEYLYKQENNILVFNAEYGNSSVFLENSTFDEFGHSINDYSISPDGQFILLEYNYVKQWRHSYTASYDIYDLNKRQLITEERIPNNTQWVTWSPVGHKLAYVWNNDIYVKIEPNLPSYRITWTGKEDIIYNGITDWVYEEEVFSAYSALWWSPNGTFLAYAQFNDTEVPLIEYSFYSDESLQYPKTVRVPYPKAGAVNPTVKFFVVNTDSLSSVTNATSIQITAPASMLIGDHYLCDVTWATQERISLQWLRRIQNYSVMDICDYDESSGRWNCLVARQHIEMSTTGWVGRFRPSEPHFTLDGNSFYKIISNEEGYRHICYFQIDKKDCTFITKGTWEVIGIEALTSDYLYYISNEYKGMPGGRNLYKIQLSDYTKVTCLSCELNPERCQYYSVSFSKEAKYYQLRCSGPGLPLYTLHSSVNDKGLRVLEDNSALDKMLQNVQMPSKKLDFIILNETKFWYQMILPPHFDKSKKYPLLLDVYAGPCSQKADTVFRLNWATYLASTENIIVASFDGRGSGYQGDKIMHAINRRLGTFEVEDQIEAARQFSKMGFVDNKRIAIWGWSYGGYVTSMVLGSGSGVFKCGIAVAPVSRWEYYDSVYTERYMGLPTPEDNLDHYRNSTVMSRAENFKQVEYLLIHGTADDNVHFQQSAQISKALVDVGVDFQAMWYTDEDHGIASSTAHQHIYTHMSHFIKQCFSLP
proteolytic processing (overnight incubation, Edman degradation) [1]: no NH2-terminal sequence could be detected, indicating that CD26/DPP IV does not alter the NH2-terminus of MCPs
proteolytic processing (overnight incubation, Edman degradation) [2]: no NH2-terminal sequence could be detected, indicating that CD26/DPP IV does not alter the NH2-terminus of MCPs
proteolytic processing (overnight incubation, Edman degradation) [3]: CD26/DPP IV treatment of RANTES resulted in the removal of the NH2-terminal dipeptides
proteolytic processing (overnight incubation, Edman degradation) [4]: no NH2-terminal sequence could be detected, indicating that CD26/DPP IV does not alter the NH2-terminus of MCPs

Reference: patent US20050164936
